# Assay results reported in a protein production outcome set (Wang et al. 2014).
# Test: label from the status in PepcDB records
row,Sequence,protein production
1,MESDRNLNYINLFMIFVNLIIIVFTSEIMTITLYKISSEFMARDFLDQITVIPWKPQNITIVSIGAYIILIILITVKKKYAKFLNKWEIAALLLCEIFFSVAIMTALNMSYNGIILFIIADLVTNTKDKSNKIIFLILMIIIYIFSVYDFISLKIKMVSFENFLYYYTANRRSYLMELKSILNSINIIVFILYMIVFIQVQMRENEKITSLNKKLNLANEKLEVMNVQLKEYAVKIGSMAETRERNRMAREIHDTLGHALTGISVGIDACLTTIDVSKELTKKQLNIIADVAREAIKDVRRSVKKLRPDALENSSLQDALNNMISRISKATKTKVFLNANIKLLKFGHDEEDTIYRIIQEGITNSIRHGQAEEIYIDMIRRDKQLNITIRDNGKGCANVEEGFGLRHIEERVKLLNGTVEYDGSDSFLITVNIPIRWGDGS,failed
2,MESIGLVEVNSIARGIEAADAMLKAAQVDLLEAKPVCPGKYIVLICGDVAAVQSSVTAGKTMAAHSVLDDFILPNVHPQVLTAISAATPLTLIKALGIIETFSIASLIVAADTAAKTGQVDLVEIRIGMGIGGKSFVTLTGDVASVESSVAAGVMLASERGMLVDKVVIPSPHDHLKRCLC,not failed
3,MESITEWDLGSLRTYYSVEPSENFQEDEFLDFNLVPCLQTELWKAQTRIKELEAEKFKSEETIRCLIRNQRNEKEETTNPFVDYLKEKLSKEREEKKRVKAENSRLKKKILDMESSVNRLRRERDTMEKVCEELVTRIDELKVNTRRVWDETEEERQMLQMAEMWREERVRVKFMDAKLALQEKYEEMNLFVVELEKCLETAREVGGIEEKRLRHGEGLIKMAKSMEVVDSKIDFERFEFVSDEGNV,failed
4,MESITQIYRIGYGPSSSHTIGPRRAAEMFLDRNPRATSFRVTLYGSLAATGKGHLTDAAILAVLEAKAPTEIVWKPEIFQNFHPNGMLFESFDKEGKQLDDWLIYSIGGGVLANEHFNEQ,not failed
5,MESITVTELKEKILDANPVNIVDVRTDQETAMGIIPGAETIPMNSIPDNLNYFNDNETYYIICKAGGRSAQVVQYLEQNGVNAVNVEGGMDEFGDEGLDIKSILEHHHHHH,not failed
6,MESKEERALNNLIVENVNQENDEKDEKEQVANKGEPLALPLNVSEYCVPRGNRRRFRVRQPILQYRWDIMHRLGEPQARMREENMERIGEEVRQLMEKLREKQLSHSLRAVSTDPPHHDHHDEFCLMP,not failed
7,MESRWNDEDAARFVEAARAEGQSEALGLRIYTSRLIGSDPDLVLHGGGNTSVKIRSDEGEQLMHIKGSGWDLDTIEAPGLPAVRLASLLEARNTPKLSDPDMVLLLRASLIEKDAPNPSVEALLHAFIPFDYVDHTHATAVLALADQPNMRDAIRRIYGDRLAYVPYVMPGFDLSIAADRIYRSHSDCEGLWLENHGLFSFANDARASYDLMIEFVTLAEQELARAGVALSGPQPNDGER,failed
8,METELVTYKEKNVQMSMLEVIGMIGIIFGVMYGIGYLNFLYEFSLYPWYVNHLISPFTFCMIIVMYAPARNYCVQLVKSIQFNHFKHYVTIVMTMIVLLIYLAVLNLVLPHGLGVEGSNIVIEPTKNEIILYVVVLTIFAPIWEELVFRGMFFMKLSQRFSTLSSAVISAFIFTLGHPLTVGSILYIFGIGICLAYTYKKTNNLLVPIGIHVLNNSFNLLVNFQL,failed
9,METEYDQVLRSVAQVNIADQIGESDDVERDGNGVKVSCFTEVFDDVTIQFQIIRLAKQIYVWVGCNSAKFGSLYAAASTRPSNTVSVTSVLGGTSDNTGSGIARRLVLKTGLNIILACNIPKNNPLLEAKAEKVLIRKLIDLGYTMSKPVRAT,failed
10,METKANYTIVGIFTLIVIAAAFGFVYWMAEFGRGGPTAQLVVRIPGSANGLSVGSPVRFNGIPVGTVRGLAIDRDDPAYSIAFTEVQADAPVFPSTRAVLEIQGLTGAAYIELSGGNKDGERILQKSVESGVPAELTADLSSVTNLLATADKILKRADGAIGELQGFVQDARGPLTQTVRNAEKFSDALAANSDGIKNFIASLSSLSTTVQSVSVRLDGTLTAVENLVKAVDAGKIDSILSNVDKVTKDVASASSDIQGIMETVQSTARNFEAASTEVQTVVKRADELLASVDPAKVSTVVGDVSAATADARDAVANFKRIADDVGARRADIDQAVSDFTEMGRKLNLASSRVDGILAKVDGMLGTDDANSLFAKARETLTSFKAVADNLNARIGPIADNLTRFSSSGLKDFQALIGSTRQTVDNLNNAITNIDRDPQRLIFGGETVKQYDGRTRRLEHHHHHH,failed
11,METKCELNNTKKVANAFGLNEEDTNLLINAVDLDIKNNMQEISSELQQSEQSKQKQLGTTLQNLAKQNRIIK,failed
12,METLELFKVISRWLFLLSIGYYLLTNLQWYSYKIERVFFKHHKWRWHILYFFMPILFFFLLGDYFYIYLYVAQLPGVMLWAKKLDKPLIFTGRVKRFFAIYAGFMLFSELLCTTTGGECDKVLYLFPLFFTILITYVLERVLLNRYATAAKDKLASMPNLTIIAITGSYGKTSLKNFLAQILNDNFKVHASPRSVNTFAGIVADINENLSPLSDIYIAEAGARTRGDIKEIGVLLEHHYGIVGKVGEQHMEYFRTLENVRETKFELAQSPRLKELFSYEGNTPPSGIKATSFPTETRNIKATLKGTSFEMLIEGQFYPFETEVLGEFNVTNISAAILVALRLGIPIEKIQRQVARLKPIPHRLQKMEVNLKLILDDSFNGNLEGMLEAIRLSSLYYGRKVIVTPGLVESTEEANTTLAQAINETFDIAILTGELNLKTLSAHIQKPQKVVVKEKEALEEVLKATTREGDLILFANDAPSYI,failed
13,METQDHTLYVLLGPTGVGKTDLSLDIAERLGSPIISADSRQIFRELPIGTAAPTPEQRAKVPHLFVGTHSVRDYYSAGMYEVEVLEALKELFRKYRGVLLTGGSMMYIDAVCRGIDDIPDPFPEVREELYARYAAEGLDGILAQLRLLDPDYYAKVDRRNYKRVIHGLEICLSTGRPFSSFHRHEAKERPFRIVKIGLYREREELCKRIDARVLEMMEQGLEEEARAVYPLRHLNALNTVGYKEMFEYFDGSIDRAEAVRRIQRNSRVYARKQMTWFRRDSTIRWFHPEADKGTVLTLVT,failed
14,METRAHHVLIGLFSVIVIGAALLFGLWLAKSGSEGKFNYYDIVFNEAVSGLSQGSSVQYSGIKVGDVAFLRLDPKDPRKVWARIRVVASAPIKQDTTAKLALTGITGTSIIQLSSGTPASPMLEGKDGKIPVIVATPSPLTQLLSNGEDLMGNINQLIARFSNLLSEENTARISRTLDHLDQATGALSAERENVSAVMQQLAQASRQANAALAQASELMRSANGLLNEQGKGMLENANKTMASLERTSATLDQLISENRHSLDGGIQGLAELGPAVSELRDTLAALRGISRRLEENPANYLLGREKTKEFTP,failed
15,METRASYILVGVFTLLAVTGALAFVLWTAGRGEGKAMAAYDVHFSGNVMGLSVASDVFFNGVKVGAVKQITLNPDDPAKVKVRIEIDATTPVREDSVASLEGRGLTGVSVVQITGGSPHAPLLVGTAGEVPVIASRASRLEELFAGMPQLVGSGNELVNRLADVLNAENRAALASTFHALDTVTARMAARADSLDRIITNMDTTTRRLANASAGLETLAGDMRDLTRGDMRDSIVAVGNTARRLDALLAAAEPGVTGFSTEGLEDMRRLLIESRHLVTTLNRMAQRMESDPRRFMFGNQLPEYEER,failed
16,METRTLEDWRALLEAEKTLDSGVYNKHDLLIVRGQGARVWDAEGNEYIDCVGGYGVANLGHGNPEVVEAVKRQAETLMAMPQTLPTPMRGEFYRTLTAILPPELNRVFPVNSGTEANEAALKFARAHTGRKKFVAAMRGFSGRTMGSLSVTWEPKYREPFLPLVEPVEFIPYNDVEALKRAVDEETAAVILEPVQGEGGVRPATPEFLRAAREITQEKGALLILDEIQTGMGRTGKRFAFEHFGIVPDILTLAKALGGGVPLGAAVMREEVARSMPKGGHGTTFGGNPLAMAAGVAAIRYLERTRLWERAAELGPWFMEKLRAIPSPKIREVRGMGLMVGLELKEKAAPYIARLEKEHRVLALQAGPTVIRFLPPLVIEKEDLERVVEAVRAVLA,not failed
17,METTSVFRADFLSELDAPAQAGTESAVSGVEGLPPGSALLVVKRGPNAGSRFLLDQAITSAGRHPDSDIFLDDVTVSRRHAEFRLENNEFNVVDVGSLNGTYVNREPVDSAVLANGDEVQIGKFRLVFLTGPKQGEDLEHHHHHH,failed
18,MEVIREQEFVNQYHYDARNLEWEEENGTPKTNFEVTFQLANRDEAAKVTSIVAVLQFVIVRDEFVISGVISQMAHIQGRLINEPSEFSQDEVENLAAPLLEIVKRLTYEVTEIALDRPGVTLEF,not failed
19,MEVIVVDDEELSLNRLGNMLAGMPGVEVCGLFYTAAEALRYINENKPDAVFLDICIPETDGLALANKIKDIDGSAKVVFVTGYDEYAVRAFELEAVDYLMKPISRDRLEKTVQRLQRTLLGTDRQSNPQMKVSCFGGFRATVCESDSGSVNWRSPKTEELFAFLIFKRNVSRDEIANTLWDGLEPGRALTNINSTMYYIRKALSPHGLEKCIAATRKEIRIDSELISCDLYEFERLLRGRPSSKDRVETLDRLAELYKGELFQGKAYEWSFAKSRSLESGFISALLETAEYYREKRGYEQAEKMYKRAFEIDPFNEDICGHIIQICLKMGRKSEALRLYLQMEKFLMEELGEKPQAKLKKLFEEQ,failed
20,MEVKFLDYTLRVGGEAGQGLQTIGGALAKIFSRKGYHVFTHQDYMSRIRGGHNFYQLRFSDREVMASKELVDILLALDLNTIEIHKNSVREDGFILYDSESMKKKFEGPQFIDIPFRKIALDVGKKSVMANTVATGAVLGLLDLGLDLLNDILRVTFEDKGKEIIEQNIACAEAGYNYAHSNCSRCEAFGIPEPEARKLLLIDGVQAIGMGALMSGCTFYSAYPMSPSTGILNYLASRAEEYGLVIEQAEDEIAAINMTIGASFAGARAMTGTSGGGFSLMAEGISLAGITETPLVLAEMQRPGPATGLPTRTEQGDLLFVLNAGHGEFPRVIFEPGTPEQAFYLTSKAFELAEKYQIPVFILSDQYLGESEWTFESFDLKRPVYNDYRVREKDLEGAEDYKRYGYTDTGISPLAVPGEAGKHLVVADSDEHDEEGHIIEDAETRIKMVQKRLLKKLPLIKEEIEAPLLYGDSSPEIVLVGHGSTYGVIKEIVDIFSKDKKIAMMHFSQIYPFPERDRFDYIEFLKNANLVISVENNATGQFAKLMRAETGFEFARQILKYDGRPFTIEKLKEEIDACL,failed
21,MEVNGEEERRSRREDEEKEDYYYSLLNSPCSVCNKFVQAILKCLGLESSSIPPSSSSSSPSLVEEEDSGTETVEETGFMARITAVLRRRPRPPPYSSGRPGQNN,not failed
22,MEVNNETMQKSKFGRICVFCGSSQGKKSSYQDAAVDLGNELVLRNIDLVYGGGSIGLMGLVSQAVHDGGRHVIGVIPKTLMPRELTGETVGEVRAVADMHQRKAEMARHSDAFIALPGGYGTLEELLEVITWAQLGIHDKPVGLLNVDGYYNSLLSFIDKAVEEGFISTNARQIIISAPTAKELVKKLEEYSPCHESVATKLCWEIERIDYSSED,failed
23,MEVTLLGTGDTTGTPTVQCDCDTCERARDPDEELRANVRERGIDPTGGVERSRFSVAVENDTTGESLLVDLSPDFRHQFLRESVPLPDAAIITHIHFDHLDGLGNAYRLFDELPVHAADETDPVTDESVAEAVRSRYDYLDTVSVHAQTPLEPFTVAGFEVTLVPVTHPPLLCYGLRIEEPQTGAVLSISGDTCYDVPDRSKSVLTGADLALVEGIVHPEACEYHPKGGTHHNEDGVPRTFGTKHMTLPGARDFAADIEADDYRIVHTAHYVPADRAFADDIGLDGEQFML,failed
